{
  "source": "the MegaScale stability set (Tsuboyama et al. 2023)",
  "parents": {"B1": {"name": "EEHEE_rd4_0469 (parent)", "chain": "ITIHVNGVTYHFDNPEEAEKFAQKMAKTYQLKMEIHNGEFHME"}},
  "data": [
    {"variants_of": "B1", "test": "folding stability dG (cDNA display proteolysis); higher = more stable", "conditions": "PBS, room temperature", "units": {"folding stability dG": "kcal/mol"}, "values": [
      {"variant": "ITIHVNGVTYHFDVPEEAEKFAQKMAKTYQLKMEIHNGEFHME", "note": "[N14V]", "folding stability dG": 1.1},
      {"variant": "ITIHVNGVTYHFDGPEEAEKFAQKMAKTYQLKMEIHNGEFHME", "note": "[N14G]", "folding stability dG": 0.9},
      {"variant": "ITIHVNGVTYHFDHPEEAEKFAQKMAKTYQLKMEIHNGEFHME", "note": "[N14H]", "folding stability dG": 0.946},
      {"variant": "ITIHVNGVTYHFDMPEEAEKFAQKMAKTYQLKMEIHNGEFHME", "note": "[N14M]", "folding stability dG": 0.98},
      {"variant": "ITIHVNGVTYHFDDPEEAEKFAQKMAKTYQLKMEIHNGEFHME", "note": "[N14D]", "folding stability dG": 1.19},
      {"variant": "ITIHVNGVTYHFDYPEEAEKFAQKMAKTYQLKMEIHNGEFHME", "note": "[N14Y]", "folding stability dG": 0.849},
      {"variant": "ITIHVNGVTYHFDWPEEAEKFAQKMAKTYQLKMEIHNGEFHME", "note": "[N14W]", "folding stability dG": 1.05},
      {"variant": "ITIHVNGVTYHFDAPEEAEKFAQKMAKTYQLKMEIHNGEFHME", "note": "[N14A]", "folding stability dG": 0.947},
      {"variant": "ITIHVNGVTYHFDFPEEAEKFAQKMAKTYQLKMEIHNGEFHME", "note": "[N14F]", "folding stability dG": 1.05},
      {"variant": "ITIHVNGVTYHFDLPEEAEKFAQKMAKTYQLKMEIHNGEFHME", "note": "[N14L]", "folding stability dG": 1.18},
      {"variant": "ITIHVNGVTYHFDTPEEAEKFAQKMAKTYQLKMEIHNGEFHME", "note": "[N14T]", "folding stability dG": 1.09},
      {"variant": "ITIHVNGVTYHFDEPEEAEKFAQKMAKTYQLKMEIHNGEFHME", "note": "[N14E]", "folding stability dG": 0.901},
      {"variant": "ITIHVNGVTYHFDRPEEAEKFAQKMAKTYQLKMEIHNGEFHME", "note": "[N14R]", "folding stability dG": 1.09},
      {"variant": "ITIHVNGVTYHFDSPEEAEKFAQKMAKTYQLKMEIHNGEFHME", "note": "[N14S]", "folding stability dG": 1.07},
      {"variant": "ITIHVNGVTYHFDNPEEREKFAQKMAKTYQLKMEIHNGEFHME", "note": "[A18R]", "folding stability dG": 0.63},
      {"variant": "ITIHVNGVTYHFDNPEECEKFAQKMAKTYQLKMEIHNGEFHME", "note": "[A18C]", "folding stability dG": 1.56},
      {"variant": "ITIHVNGVTYHFDNPEEEEKFAQKMAKTYQLKMEIHNGEFHME", "note": "[A18E]", "folding stability dG": 0.011},
      {"variant": "ITIHVNGVTYHFDNPEEGEKFAQKMAKTYQLKMEIHNGEFHME", "note": "[A18G]", "folding stability dG": 1.03},
      {"variant": "ITIHVNGVTYHFDNPEEVEKFAQKMAKTYQLKMEIHNGEFHME", "note": "[A18V]", "folding stability dG": 0.798},
      {"variant": "ITIHVNGVTYHFDNPEETEKFAQKMAKTYQLKMEIHNGEFHME", "note": "[A18T]", "folding stability dG": 0.325},
      {"variant": "ITIHVNGVTYHFDNPEEPEKFAQKMAKTYQLKMEIHNGEFHME", "note": "[A18P]", "folding stability dG": -0.237},
      {"variant": "ITIHVNGVTYHFDNPEEYEKFAQKMAKTYQLKMEIHNGEFHME", "note": "[A18Y]", "folding stability dG": 0.556},
      {"variant": "ITIHVNGVTYHFDNPEENEKFAQKMAKTYQLKMEIHNGEFHME", "note": "[A18N]", "folding stability dG": -0.125},
      {"variant": "ITIHVNGVTYHFDNPEEMEKFAQKMAKTYQLKMEIHNGEFHME", "note": "[A18M]", "folding stability dG": 0.753},
      {"variant": "ITIHVNGVTYHFDNPEEWEKFAQKMAKTYQLKMEIHNGEFHME", "note": "[A18W]", "folding stability dG": 0.81},
      {"variant": "ITIHVNGVTYHFDNPEEIEKFAQKMAKTYQLKMEIHNGEFHME", "note": "[A18I]", "folding stability dG": 0.525},
      {"variant": "ITIHVNGVTYHFDNPEEDEKFAQKMAKTYQLKMEIHNGEFHME", "note": "[A18D]", "folding stability dG": -0.444},
      {"variant": "ITIHVNGVTYHFDNPEEQEKFAQKMAKTYQLKMEIHNGEFHME", "note": "[A18Q]", "folding stability dG": 0.282},
      {"variant": "ITIHVNGVTYHFDNPEEKEKFAQKMAKTYQLKMEIHNGEFHME", "note": "[A18K]", "folding stability dG": 0.431},
      {"variant": "ITIHVNGVTYHFDNPEESEKFAQKMAKTYQLKMEIHNGEFHME", "note": "[A18S]", "folding stability dG": 0.425},
      {"variant": "ITIHVNGVTYHFDNPEELEKFAQKMAKTYQLKMEIHNGEFHME", "note": "[A18L]", "folding stability dG": 0.747},
      {"variant": "ITIHVNGVTYHFDNPEEFEKFAQKMAKTYQLKMEIHNGEFHME", "note": "[A18F]", "folding stability dG": 1},
      {"variant": "ITIHVNGVTYHFDNPEEHEKFAQKMAKTYQLKMEIHNGEFHME", "note": "[A18H]", "folding stability dG": 0.114},
      {"variant": "ITIHVNGVTYHFDNPHEAEKFAQKMAKTYQLKMEIHNGEFHME", "note": "[E16H]", "folding stability dG": 1.14},
      {"variant": "ITIHVNGVTYHFDNPQEAEKFAQKMAKTYQLKMEIHNGEFHME", "note": "[E16Q]", "folding stability dG": 1.1},
      {"variant": "ITIHVNGVTYHFDNPPEAEKFAQKMAKTYQLKMEIHNGEFHME", "note": "[E16P]", "folding stability dG": 0.698},
      {"variant": "ITIHVNGVTYHFDNPGEAEKFAQKMAKTYQLKMEIHNGEFHME", "note": "[E16G]", "folding stability dG": 1.02},
      {"variant": "ITIHVNGVTYHFDNPDEAEKFAQKMAKTYQLKMEIHNGEFHME", "note": "[E16D]", "folding stability dG": 1.25},
      {"variant": "ITIHVNGVTYHFDNPFEAEKFAQKMAKTYQLKMEIHNGEFHME", "note": "[E16F]", "folding stability dG": 1.2},
      {"variant": "ITIHVNGVTYHFDNPMEAEKFAQKMAKTYQLKMEIHNGEFHME", "note": "[E16M]", "folding stability dG": 1.15},
      {"variant": "ITIHVNGVTYHFDNPTEAEKFAQKMAKTYQLKMEIHNGEFHME", "note": "[E16T]", "folding stability dG": 1.09},
      {"variant": "ITIHVNGVTYHFDNPAEAEKFAQKMAKTYQLKMEIHNGEFHME", "note": "[E16A]", "folding stability dG": 1.12},
      {"variant": "ITIHVNGVTYHFDNPCEAEKFAQKMAKTYQLKMEIHNGEFHME", "note": "[E16C]", "folding stability dG": 1.77},
      {"variant": "ITIHVNGVTYHFDNPLEAEKFAQKMAKTYQLKMEIHNGEFHME", "note": "[E16L]", "folding stability dG": 1.19},
      {"variant": "ITIHVNGVTYHFDNPREAEKFAQKMAKTYQLKMEIHNGEFHME", "note": "[E16R]", "folding stability dG": 1.21},
      {"variant": "ITIHVNGVTYHFDNPKEAEKFAQKMAKTYQLKMEIHNGEFHME", "note": "[E16K]", "folding stability dG": 1.18},
      {"variant": "ITIHVNGVTYHFDNPSEAEKFAQKMAKTYQLKMEIHNGEFHME", "note": "[E16S]", "folding stability dG": 1.12},
      {"variant": "ITIHVNGVTYHFDNPVEAEKFAQKMAKTYQLKMEIHNGEFHME", "note": "[E16V]", "folding stability dG": 1.18},
      {"variant": "ITIHVNGVTYHFDNPIEAEKFAQKMAKTYQLKMEIHNGEFHME", "note": "[E16I]", "folding stability dG": 1.18},
      {"variant": "ITIHVNGVTYHFDNPYEAEKFAQKMAKTYQLKMEIHNGEFHME", "note": "[E16Y]", "folding stability dG": 1.19},
      {"variant": "ITIHVNGVTYHFDNPNEAEKFAQKMAKTYQLKMEIHNGEFHME", "note": "[E16N]", "folding stability dG": 1.03},
      {"variant": "ITIHVNGVTYHFDNPWEAEKFAQKMAKTYQLKMEIHNGEFHME", "note": "[E16W]", "folding stability dG": 1.16},
      {"variant": "ITIHVNGVTYHFWNPEEAEKFAQKMAKTYQLKMEIHNGEFHME", "note": "[D13W]", "folding stability dG": 1.23},
      {"variant": "ITIHVNGVTYHFYNPEEAEKFAQKMAKTYQLKMEIHNGEFHME", "note": "[D13Y]", "folding stability dG": 1.23},
      {"variant": "ITIHVNGVTYHFDNPEEAEEFAQKMAKTYQLKMEIHNGEFHME", "note": "[K20E]", "folding stability dG": 1.11},
      {"variant": "ITIHVNGVTYHFDNPEEAEAFAQKMAKTYQLKMEIHNGEFHME", "note": "[K20A]", "folding stability dG": 1.21},
      {"variant": "ITIHVNGVTYHFDNPEEAEFFAQKMAKTYQLKMEIHNGEFHME", "note": "[K20F]", "folding stability dG": 1.1},
      {"variant": "ITIHVNGVTYHFDNPEEAECFAQKMAKTYQLKMEIHNGEFHME", "note": "[K20C]", "folding stability dG": 2.01},
      {"variant": "ITIHVNGVTYHFDNPEEAEDFAQKMAKTYQLKMEIHNGEFHME", "note": "[K20D]", "folding stability dG": 1.03}
    ]}
  ]
}
